The target of assay [1] is GST-p53 construct (Res. 73-390) [GST: P08515]. Kind of assay: in vitro binding, ^35S-T-antigen probe on bead-immobilized GST-p53.
In assay [2] the target is T1, ^35S-PKD2 probe (C-terminal region of polycystin-2, Res. 657-968) (UniProt Q13563 657-968, ^35S-labeled (in vitro translation)).
T1 construct: range 657-968; In vitro translated in the same manner as the Ig probes; also called polycystin-2 probe; PKD2 gene product
T1 sequence (looked up): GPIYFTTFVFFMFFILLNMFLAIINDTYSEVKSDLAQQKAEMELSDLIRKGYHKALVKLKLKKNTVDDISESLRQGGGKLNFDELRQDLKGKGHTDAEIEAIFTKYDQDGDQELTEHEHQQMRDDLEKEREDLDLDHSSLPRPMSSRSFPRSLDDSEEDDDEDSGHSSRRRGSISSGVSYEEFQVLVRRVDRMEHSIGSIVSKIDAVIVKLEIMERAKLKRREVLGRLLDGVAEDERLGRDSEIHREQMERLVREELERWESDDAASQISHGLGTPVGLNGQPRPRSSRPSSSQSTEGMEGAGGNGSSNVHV
Kind of assay: in vitro binding, autoradiogram (FIG. 12C).

In assay [3] the target is T2, GST-Ig^b fusion protein (polycystin-1 Ig-like domains VI-X, amino acids 1205-1625, fused to GST) (human, UniProt P98161 1205-1625).
T2 construct: used soluble in the MDCK adhesion assays; not shown: glutathione S-transferase carrier encoded by the pGEX vector (Pharmacia), N-terminal fusion partner; linker residues not
T2 sequence: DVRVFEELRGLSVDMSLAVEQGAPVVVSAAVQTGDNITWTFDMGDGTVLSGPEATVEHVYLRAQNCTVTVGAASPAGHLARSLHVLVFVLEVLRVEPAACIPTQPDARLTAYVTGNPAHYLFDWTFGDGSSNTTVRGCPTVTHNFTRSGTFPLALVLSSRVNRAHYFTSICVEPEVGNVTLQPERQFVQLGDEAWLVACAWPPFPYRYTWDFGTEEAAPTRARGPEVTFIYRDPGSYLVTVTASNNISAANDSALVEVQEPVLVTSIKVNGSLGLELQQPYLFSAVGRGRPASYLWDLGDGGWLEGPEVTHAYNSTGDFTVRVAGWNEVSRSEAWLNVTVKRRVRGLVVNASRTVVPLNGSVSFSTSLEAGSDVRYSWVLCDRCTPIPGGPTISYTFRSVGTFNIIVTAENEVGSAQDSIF
In words: in vitro binding, ^35S in vitro translated probe on bead-immobilized GST fusion.

The target in assay [4] is Ig^b and Ig^c, as partners of Ig^b in the 'Ig^b-Ig^b, Ig^b-Ig^c combinations'. Kind of assay: in vitro binding, ^35S in vitro translated probe on bead-immobilized GST fusion, PhosphorImager.

Sequence of GST-p53 construct (Res. 73-390) [GST: P08515] (P08515 whole entry): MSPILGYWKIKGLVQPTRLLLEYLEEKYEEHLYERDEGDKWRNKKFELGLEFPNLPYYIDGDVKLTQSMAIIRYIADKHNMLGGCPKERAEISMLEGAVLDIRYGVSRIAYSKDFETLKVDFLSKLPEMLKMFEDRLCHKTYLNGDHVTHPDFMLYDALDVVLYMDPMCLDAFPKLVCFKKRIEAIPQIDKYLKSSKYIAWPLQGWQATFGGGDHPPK

In assay [1], “^35S-T-antigen probe (SV40 large T-antigen, res. 87-708) (from UniProt P03070 87-708)” gave a bound fraction (percentage of input probe) of 45%.

B1: MBP-PKD1 fusion protein (C-terminal region of polycystin-1, Res. 4077-4302, fused to MBP) (other, not shown: large carriers)
chain: ESWHLSPLLCVGLWALRLWGALRLGAVILRWRYHALRGELYRPAWEPQDYEMVELFLRRLRLWMGLSKVKEFRHKVRFEGMEPLPSRSSRGSKVSPDVPPPSAGSDASHPSTSSSQLDGLSVSLGRLGTRCEPEPSRLQAVFEALLTQFDRLNQATEDVYQLEQQLHSLQGRRSSRAPAGSSRGPSPGLRPALPSRLARASRGVDLATGPSRTPLRAKNKVHPSST
notes: Immobilized on amylose resin; also called polycystin-1 c-terminal fusion protein
On to B1, for which, in assay [2], the binding result is on record as “binds”.

B2: ^35S-Ig^b in vitro translated probe (polycystin-1 Ig-like domains VI-X) (other)
chain: T2 sequence
modifications: ^35S-labeled (in vitro translation)
notes: Translated in reticulocyte lysate without the GST portion, from an AUG in a Kozak context placed upstream of the insert
With B2, the binding result in assay [3] is reported as “binds”. For the same molecule, the bound fraction (percentage of input probe) in assay [4] is 25 to 45%.

The values above are taken from patent US20070212347A1 (published 2007).
